# In article PMC4230899, “Diverse allosteric and catalytic functions of tetrameric D-lactate dehydrogenases from three Gram-negative bacteria” (AMB Express, 2014):
# T1: ECLDH (Escherichia coli, UniProt P52643)
# T1 construct: gene ldhA
# T1 sequence (P52643 1-329): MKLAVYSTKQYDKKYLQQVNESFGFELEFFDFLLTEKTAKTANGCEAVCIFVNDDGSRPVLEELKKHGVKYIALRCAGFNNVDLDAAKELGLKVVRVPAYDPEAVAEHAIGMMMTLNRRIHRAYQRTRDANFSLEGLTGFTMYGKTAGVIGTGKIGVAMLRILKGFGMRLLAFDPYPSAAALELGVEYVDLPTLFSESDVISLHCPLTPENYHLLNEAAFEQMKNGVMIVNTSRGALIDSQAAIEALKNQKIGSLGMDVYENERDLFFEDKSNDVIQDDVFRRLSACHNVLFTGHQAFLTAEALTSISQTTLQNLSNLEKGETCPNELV
# T2: FNLDH (Fusobacterium nucleatum, UniProt Q8RG11)
# T2 construct: gene FN0511
# T2 sequence (Q8RG11 1-335): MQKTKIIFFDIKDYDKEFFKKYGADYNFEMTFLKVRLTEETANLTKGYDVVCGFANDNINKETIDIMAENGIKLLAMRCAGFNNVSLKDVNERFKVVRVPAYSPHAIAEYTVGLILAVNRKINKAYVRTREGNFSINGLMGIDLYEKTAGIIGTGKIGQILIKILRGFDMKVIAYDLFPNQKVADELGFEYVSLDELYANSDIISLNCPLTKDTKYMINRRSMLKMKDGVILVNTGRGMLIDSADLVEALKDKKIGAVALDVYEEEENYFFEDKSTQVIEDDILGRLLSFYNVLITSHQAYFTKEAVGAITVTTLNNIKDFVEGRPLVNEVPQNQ
# T3: PALDH (Pseudomonas aeruginosa, UniProt Q9I530)
# T3 construct: gene ldhA
# T3 sequence (Q9I530 1-329): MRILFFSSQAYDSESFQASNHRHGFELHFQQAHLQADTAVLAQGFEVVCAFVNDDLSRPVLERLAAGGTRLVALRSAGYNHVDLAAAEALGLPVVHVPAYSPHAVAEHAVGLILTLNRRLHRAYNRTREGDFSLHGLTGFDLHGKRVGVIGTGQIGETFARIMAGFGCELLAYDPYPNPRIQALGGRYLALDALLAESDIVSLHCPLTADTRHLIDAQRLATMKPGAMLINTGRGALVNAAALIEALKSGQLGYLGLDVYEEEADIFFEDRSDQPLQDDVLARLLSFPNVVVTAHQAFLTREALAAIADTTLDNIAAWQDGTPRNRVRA
# B1: NAD-dependent D-lactate dehydrogenase from Escherichia coli (enzyme, E. coli BL21(DE3), UniProt P52643 1-329, looked up)
# chain: T1 sequence (P52643 1-329)
# notes: gene amplified from genomic DNA with primers from the start codon to the stop codon; theoretical molecular weight printed as 38.5 kDa; No removal of the vector's tag is described; the printed theoretical mass (38.5 kDa) may include the leader of pCold I (surmise); A second peak at the position of an octamer was seen and put down as a likely artefact of overexpression; also called ECLDH; …
# B2: NAD-dependent D-lactate dehydrogenase from Fusobacterium nucleatum subsp. nucleatum (enzyme, UniProt Q8RG11 1-335, looked up)
# chain: T2 sequence (Q8RG11 1-335)
# notes: FN0511 protein (FNLDH), NAD-dependent D-lactate dehydrogenase of Fusobacterium nucleatum subsp. nucleatum JCM14847 (=ATCC25586); gene amplified from genomic DNA with primers from the start codon to the stop codon; theoretical molecular weight printed as 40.0 kDa; No removal of the vector's tag is described; the printed theoretical mass (40.0 kDa) may include the leader of pCold I (surmise); The …
# B3: PALDH (Pseudomonas aeruginosa PAO1) (protein)
# chain: T3 sequence (Q9I530 1-329)
# Key:
# ECLDH [1] = target: T1, ECLDH; assay: NADH absorbance at […] nm, activation of pyruvate reduction, Hill fit; assay type: biochemical; details: slight activator, half-saturation for activation; 7.5 mM pyruvate, 0.1 mM NADH; 50 mM Bicine-NaOH pH 8.0; 30 °C; read-out: S 0.5
# FNLDH = target: T2, FNLDH; assay: NADH absorbance at […] nm, pyruvate reduction, nonlinear regression; assay type: biochemical
# ECLDH [2] = target: T1, ECLDH; assay: as above; assay type: biochemical
# PALDH = target: T3, PALDH; assay: as above; assay type: biochemical
# [3] = target: NAD-dependent D-lactate dehydrogenase from Pseudomonas aeruginosa (Pseudomonas aeruginosa JCM8532 (=PAO1)); assay: SEC; Superdex 200 (Hiload 16/60), 1 ml of 1 mg/ml protein, 50 mM sodium acetate pH 5.0 with 150 mM NaCl; calibrated with standard proteins; apparent molecular weight against theoretical subunit weight
# [4] = target: the molecule itself; assay: SEC; Superdex 200 (Hiload 16/60), 1 ml of 1 mg/ml protein, 50 mM HEPES-NaOH pH 8.0 with 150 mM NaCl; calibrated with standard proteins; apparent molecular weight against theoretical subunit weight
# purified protein [5] = substrate: O=C(O)C(=O)CO; assay: purified protein; assay type: biochemical, Escherichia coli; details: 0.1 mM NADH, pH 7.0, 30 °C
# purified protein [6] = substrate: NC(=O)C1=CN([C@@H]2O[C@H](COP(=O)(O)OP(=O)(O)OC[C@H]3O[C@@H](n4cnc5c(N)ncnc54)[C@H](O)[C@@H]3O)[C@@H](O)[C@H]2O)C=CC1; assay: purified protein; assay type: biochemical, Escherichia coli; details: saturating pyruvate, pH 7.0, 30 °C, no effector, apparent, varied: cofactor
# purified protein [7] = substrate: O=CC(=O)O; assay: purified protein; assay type: biochemical, Escherichia coli; details: 0.1 mM NADH, pH 7.0, 30 °C, Hill fit
# purified protein [8] = substrate: CC(=O)C(=O)O; assay: purified protein; assay type: biochemical, Escherichia coli; details: 0.1 mM NADH, pH 7.0, 30 °C, no effector, Hill fit
# purified protein [9] = substrate: NC(=O)C1=CN([C@@H]2O[C@H](COP(=O)(O)OP(=O)(O)OC[C@H]3O[C@@H](n4cnc5c(N)ncnc54)[C@H](O)[C@@H]3O)[C@@H](O)[C@H]2O)C=CC1; assay: purified protein; assay type: biochemical, Fusobacterium nucleatum; details: saturating pyruvate, pH 7.0, 30 °C, no effector, apparent, varied: cofactor
# purified protein [10] = substrate: CCCC(=O)C(=O)O; assay: purified protein; assay type: biochemical, Fusobacterium nucleatum; details: 0.1 mM NADH, pH 7.0, 30 °C
# purified protein [11] = substrate: CC(=O)C(=O)O; assay: purified protein; assay type: biochemical, Fusobacterium nucleatum; details: 0.1 mM NADH, pH 7.0, 30 °C, no effector
# purified protein [12] = substrate: CCC(=O)C(=O)O; assay: purified protein; assay type: biochemical, Fusobacterium nucleatum; details: 0.1 mM NADH, pH 7.0, 30 °C
# purified protein [13] = substrate: O=C(O)CC(=O)C(=O)O; assay: purified protein; assay type: biochemical, Fusobacterium nucleatum; details: 0.1 mM NADH, pH 7.0, 30 °C, fit with substrate inhibition
# purified protein [14] = substrate: O=C(O)C(=O)CO; assay: purified protein; assay type: biochemical, Pseudomonas aeruginosa; details: 0.1 mM NADH, pH 7.0, 30 °C, fit with substrate inhibition
# purified protein [15] = substrate: NC(=O)C1=CN([C@@H]2O[C@H](COP(=O)(O)OP(=O)(O)OC[C@H]3O[C@@H](n4cnc5c(N)ncnc54)[C@H](O)[C@@H]3O)[C@@H](O)[C@H]2O)C=CC1; assay: purified protein; assay type: biochemical, Pseudomonas aeruginosa; details: saturating pyruvate, pH 7.0, 30 °C, no effector, apparent, varied: cofactor
# purified protein [16] = substrate: CC(=O)C(=O)O; assay: purified protein; assay type: biochemical, Pseudomonas aeruginosa; details: 0.1 mM NADH, pH 7.0, 30 °C, no effector, fit with substrate inhibition
# purified protein [17] = substrate: CCC(=O)C(=O)O; assay: purified protein; assay type: biochemical, Pseudomonas aeruginosa; details: 0.1 mM NADH, pH 7.0, 30 °C
# purified protein [18] = substrate: O=C(O)CC(=O)C(=O)O; assay: purified protein; assay type: biochemical, Pseudomonas aeruginosa; details: 0.1 mM NADH, pH 7.0, 30 °C
molecule,measurement,setting,value
O=P(O)(O)OC[C@H]1OC(O)(COP(=O)(O)O)[C@@H](O)[C@@H]1O (stereo partly shown) [FBP],EC50,ECLDH [1],1.3 mM
NC(=O)C(=O)O [Oxamate],Ki,FNLDH,9.4 ± 0.2 mM
same,Ki,ECLDH [2],20 ± 2 mM
same,Ki,PALDH,0.29 ± 0.04 mM
NAD-dependent D-lactate dehydrogenase from Pseudomonas aeruginosa (enzyme),stoichiometry N,[3],3
B1,stoichiometry N,[4],4
same,K0.5,purified protein [5],12 (0.3) mM
same,kcat,purified protein [5],50 s⁻¹
same,kcat/Km,purified protein [5],4200 M⁻¹ s⁻¹
same,K0.5,purified protein [6],0.055 (0.004) mM
same,kcat,purified protein [6],640 s⁻¹
same,kcat/Km,purified protein [6],1.2e+07 M⁻¹ s⁻¹
same,K0.5,purified protein [7],20 (2) mM
same,kcat,purified protein [7],100 s⁻¹
same,kcat/Km,purified protein [7],5300 M⁻¹ s⁻¹
same,K0.5,purified protein [8],2.6 (0.09) mM
same,kcat,purified protein [8],410 s⁻¹
same,kcat/Km,purified protein [8],160000 M⁻¹ s⁻¹
B2,K0.5,purified protein [9],0.022 (0.0005) mM
same,kcat,purified protein [9],98 s⁻¹
same,kcat/Km,purified protein [9],4.4e+06 M⁻¹ s⁻¹
same,K0.5,purified protein [10],0.68 (0.01) mM
same,kcat,purified protein [10],140 s⁻¹
same,kcat/Km,purified protein [10],200000 M⁻¹ s⁻¹
same,K0.5,purified protein [11],0.34 (0.007) mM
same,kcat,purified protein [11],80 s⁻¹
same,kcat/Km,purified protein [11],230000 M⁻¹ s⁻¹
same,K0.5,purified protein [12],0.31 (0.006) mM
same,kcat,purified protein [12],140 s⁻¹
same,kcat/Km,purified protein [12],440000 M⁻¹ s⁻¹
same,K0.5,purified protein [13],2.5 (0.09) mM
same,kcat,purified protein [13],80 s⁻¹
same,kcat/Km,purified protein [13],31000 M⁻¹ s⁻¹
same,stoichiometry N,[4],4
B3,K0.5,purified protein [14],3.0 (0.2) mM
same,kcat,purified protein [14],420 s⁻¹
same,kcat/Km,purified protein [14],140000 M⁻¹ s⁻¹
same,K0.5,purified protein [15],0.019 (0.0005) mM
same,kcat,purified protein [15],310 s⁻¹
same,kcat/Km,purified protein [15],1.7e+07 M⁻¹ s⁻¹
same,K0.5,purified protein [16],0.10 (0.009) mM
same,kcat,purified protein [16],400 s⁻¹
same,kcat/Km,purified protein [16],4e+06 M⁻¹ s⁻¹
same,K0.5,purified protein [17],0.64 (0.01) mM
same,kcat,purified protein [17],100 s⁻¹
same,kcat/Km,purified protein [17],150000 M⁻¹ s⁻¹
same,K0.5,purified protein [18],1.7 (0.06) mM
same,kcat,purified protein [18],410 s⁻¹
same,kcat/Km,purified protein [18],230000 M⁻¹ s⁻¹
